Patent publication US20210130454A1 (BLUEFIN BIOMEDICINE, published 2021)

Tests used:
[1] = target: T1, recombinant human SEZ6L2 (extracellular portion of human SEZ6L2 fused to six C-terminal histidine-tag repeats) (human, UniProt Q6UXD5 28-844); experiment: BLI (ForteBio Octet Red96), antibody on Protein A biosensors, recombinant target protein in solution
T1 construct: also called SEZ6L2-his; recombinant SEZ6L2

[2] = target: T2, human SEZ6L on cells (293-SEZ6L) (human, UniProt Q9BYH1 29-1024); experiment: flow cytometry on live 293-SEZ6L cells, Alexa Fluor 488 anti-human IgG secondary [continued), panel K]
T2 construct: whole, on cells; also called Seizure 6-like Protein
T2 sequence (looked up): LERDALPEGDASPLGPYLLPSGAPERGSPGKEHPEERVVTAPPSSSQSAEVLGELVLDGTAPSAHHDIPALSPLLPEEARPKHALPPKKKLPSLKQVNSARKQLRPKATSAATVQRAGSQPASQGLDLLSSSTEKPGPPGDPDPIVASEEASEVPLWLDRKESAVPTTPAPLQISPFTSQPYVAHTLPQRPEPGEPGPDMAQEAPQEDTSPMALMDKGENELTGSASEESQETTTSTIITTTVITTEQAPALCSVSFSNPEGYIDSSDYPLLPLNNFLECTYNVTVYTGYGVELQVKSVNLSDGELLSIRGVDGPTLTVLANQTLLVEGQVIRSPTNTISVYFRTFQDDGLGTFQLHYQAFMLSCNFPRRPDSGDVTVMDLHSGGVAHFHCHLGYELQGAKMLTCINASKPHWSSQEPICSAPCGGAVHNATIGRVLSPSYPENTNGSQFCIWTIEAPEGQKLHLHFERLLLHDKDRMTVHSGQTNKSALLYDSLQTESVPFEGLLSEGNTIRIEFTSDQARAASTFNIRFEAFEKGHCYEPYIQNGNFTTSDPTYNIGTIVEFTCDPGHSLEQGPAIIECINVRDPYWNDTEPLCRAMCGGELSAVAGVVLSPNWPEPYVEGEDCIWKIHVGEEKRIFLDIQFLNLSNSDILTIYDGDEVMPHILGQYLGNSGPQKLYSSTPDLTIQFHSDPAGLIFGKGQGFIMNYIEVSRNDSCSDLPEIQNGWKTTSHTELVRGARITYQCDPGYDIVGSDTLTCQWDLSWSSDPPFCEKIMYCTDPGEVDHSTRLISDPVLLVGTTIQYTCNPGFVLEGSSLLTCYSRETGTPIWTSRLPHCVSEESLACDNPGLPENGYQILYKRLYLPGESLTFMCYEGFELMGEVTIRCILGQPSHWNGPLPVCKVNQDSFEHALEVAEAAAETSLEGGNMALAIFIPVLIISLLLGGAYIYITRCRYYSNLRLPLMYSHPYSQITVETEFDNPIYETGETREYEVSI

[3] = target: T3, human SEZ6 on cells (293-SEZ6) (human, UniProt Q53EL9 20-994); experiment: flow cytometry on live 293-SEZ6 cells, Alexa Fluor 488 anti-human IgG secondary [continued), panel K]
T3 construct: whole, on cells; also called Seizure Protein 6 Homolog
T3 sequence (looked up): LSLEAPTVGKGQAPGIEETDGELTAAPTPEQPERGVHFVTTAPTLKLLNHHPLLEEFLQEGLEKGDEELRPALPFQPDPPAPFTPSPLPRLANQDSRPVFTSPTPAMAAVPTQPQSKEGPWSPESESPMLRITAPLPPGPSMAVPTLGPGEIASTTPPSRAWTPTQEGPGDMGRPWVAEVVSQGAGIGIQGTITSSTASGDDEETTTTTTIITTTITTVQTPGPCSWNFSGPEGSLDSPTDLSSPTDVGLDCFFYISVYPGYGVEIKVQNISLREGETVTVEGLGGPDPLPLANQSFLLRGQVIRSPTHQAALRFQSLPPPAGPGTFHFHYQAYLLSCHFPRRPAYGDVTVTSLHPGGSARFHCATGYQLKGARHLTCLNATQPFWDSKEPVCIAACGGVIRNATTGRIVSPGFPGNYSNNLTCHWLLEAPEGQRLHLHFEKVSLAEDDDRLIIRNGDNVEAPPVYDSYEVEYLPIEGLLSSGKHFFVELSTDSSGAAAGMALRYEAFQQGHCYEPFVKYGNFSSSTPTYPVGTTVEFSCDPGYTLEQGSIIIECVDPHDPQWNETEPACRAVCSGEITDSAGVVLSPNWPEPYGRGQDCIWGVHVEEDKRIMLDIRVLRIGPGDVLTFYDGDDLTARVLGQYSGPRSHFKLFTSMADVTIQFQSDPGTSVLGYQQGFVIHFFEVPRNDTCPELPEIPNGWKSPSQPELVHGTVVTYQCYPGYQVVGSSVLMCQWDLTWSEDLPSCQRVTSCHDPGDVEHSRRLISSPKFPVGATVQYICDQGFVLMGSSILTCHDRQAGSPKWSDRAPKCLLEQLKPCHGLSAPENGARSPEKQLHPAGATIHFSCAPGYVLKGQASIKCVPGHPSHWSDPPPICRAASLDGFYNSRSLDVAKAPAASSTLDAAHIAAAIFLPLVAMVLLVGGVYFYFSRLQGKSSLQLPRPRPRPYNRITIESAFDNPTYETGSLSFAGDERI

[4] = target: T4, recombinant cynomolgus monkey SEZ6L2 (cynomolgus monkey, UniProt G7Q0V6 28-844); experiment: BLI (ForteBio Octet Red96), antibody on Protein A biosensors, recombinant target protein in solution
T4 construct: The construct is not described; also called cynomolgus monkey SEZL2

[5] = target: T2, human SEZ6L on cells (293-SEZ6L); experiment: flow cytometry on live 293-SEZ6L cells, Alexa Fluor 488 anti-human IgG secondary [panel C]
[6] = target: T3, human SEZ6 on cells (293-SEZ6); experiment: flow cytometry on live 293-SEZ6 cells, Alexa Fluor 488 anti-human IgG secondary [panel C]
[7] = target: T2, human SEZ6L on cells (293-SEZ6L); experiment: flow cytometry on live 293-SEZ6L cells, Alexa Fluor 488 anti-human IgG secondary [continued), panel L]
[8] = target: T3, human SEZ6 on cells (293-SEZ6); experiment: flow cytometry on live 293-SEZ6 cells, Alexa Fluor 488 anti-human IgG secondary [continued), panel L]
[9] = target: T2, human SEZ6L on cells (293-SEZ6L); experiment: flow cytometry on live 293-SEZ6L cells, Alexa Fluor 488 anti-human IgG secondary [continued), panel J]
[10] = target: T3, human SEZ6 on cells (293-SEZ6); experiment: flow cytometry on live 293-SEZ6 cells, Alexa Fluor 488 anti-human IgG secondary [continued), panel J]
[11] = target: T2, human SEZ6L on cells (293-SEZ6L); experiment: flow cytometry on live 293-SEZ6L cells, Alexa Fluor 488 anti-human IgG secondary [panel B]
[12] = target: T3, human SEZ6 on cells (293-SEZ6); experiment: flow cytometry on live 293-SEZ6 cells, Alexa Fluor 488 anti-human IgG secondary [panel B]
[13] = target: T5, human SEZ6L2 on cells (293-SEZ6L2, HEK 293 cells transfected with human SEZ6L2, and SEZ6L2-expressing tumor … (human, UniProt Q6UXD5 28-910)); experiment: flow cytometry on live 293-SEZ6L2 cells, primary antibody 1 ug/ml, Alexa Fluor 488 anti-human IgG secondary [panel B]
T5 construct: Tumor cell lines express the endogenous protein; also called hSEZ6L2

[14] = target: T3, human SEZ6 on cells (293-SEZ6); experiment: flow cytometry on live 293-SEZ6 cells, Alexa Fluor 488 anti-human IgG secondary [continued), panel E]
[15] = target: T2, human SEZ6L on cells (293-SEZ6L); experiment: flow cytometry on live 293-SEZ6L cells, Alexa Fluor 488 anti-human IgG secondary [continued), panel E]
[16] = target: T2, human SEZ6L on cells (293-SEZ6L); experiment: flow cytometry on live 293-SEZ6L cells, Alexa Fluor 488 anti-human IgG secondary [panel D]
[17] = target: T3, human SEZ6 on cells (293-SEZ6); experiment: flow cytometry on live 293-SEZ6 cells, Alexa Fluor 488 anti-human IgG secondary [panel D]

T1 sequence (Q6UXD5 other isoform, or with tags, fused parts or gaps): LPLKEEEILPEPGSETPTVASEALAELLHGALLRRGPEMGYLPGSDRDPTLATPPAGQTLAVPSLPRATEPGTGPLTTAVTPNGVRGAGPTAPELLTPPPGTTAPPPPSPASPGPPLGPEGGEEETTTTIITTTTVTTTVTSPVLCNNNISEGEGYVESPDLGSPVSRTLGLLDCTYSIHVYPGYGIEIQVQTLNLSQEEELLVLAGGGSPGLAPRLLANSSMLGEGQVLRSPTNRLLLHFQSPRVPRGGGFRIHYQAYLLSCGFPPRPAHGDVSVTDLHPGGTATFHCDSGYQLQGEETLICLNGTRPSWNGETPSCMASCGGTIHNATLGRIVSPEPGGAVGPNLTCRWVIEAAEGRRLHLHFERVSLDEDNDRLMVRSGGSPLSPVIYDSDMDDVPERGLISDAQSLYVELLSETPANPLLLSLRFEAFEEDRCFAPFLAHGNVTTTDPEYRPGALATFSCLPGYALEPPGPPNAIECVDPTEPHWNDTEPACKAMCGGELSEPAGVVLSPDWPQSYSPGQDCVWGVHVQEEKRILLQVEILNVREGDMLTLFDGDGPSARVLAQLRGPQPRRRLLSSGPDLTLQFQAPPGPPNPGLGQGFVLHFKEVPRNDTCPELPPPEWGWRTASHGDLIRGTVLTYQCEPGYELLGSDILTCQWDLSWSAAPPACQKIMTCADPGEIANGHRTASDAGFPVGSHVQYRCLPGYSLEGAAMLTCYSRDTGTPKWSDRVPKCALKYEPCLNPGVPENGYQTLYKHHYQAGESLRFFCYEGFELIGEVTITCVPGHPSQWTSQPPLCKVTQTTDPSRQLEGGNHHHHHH
T5 sequence (Q6UXD5 28-910): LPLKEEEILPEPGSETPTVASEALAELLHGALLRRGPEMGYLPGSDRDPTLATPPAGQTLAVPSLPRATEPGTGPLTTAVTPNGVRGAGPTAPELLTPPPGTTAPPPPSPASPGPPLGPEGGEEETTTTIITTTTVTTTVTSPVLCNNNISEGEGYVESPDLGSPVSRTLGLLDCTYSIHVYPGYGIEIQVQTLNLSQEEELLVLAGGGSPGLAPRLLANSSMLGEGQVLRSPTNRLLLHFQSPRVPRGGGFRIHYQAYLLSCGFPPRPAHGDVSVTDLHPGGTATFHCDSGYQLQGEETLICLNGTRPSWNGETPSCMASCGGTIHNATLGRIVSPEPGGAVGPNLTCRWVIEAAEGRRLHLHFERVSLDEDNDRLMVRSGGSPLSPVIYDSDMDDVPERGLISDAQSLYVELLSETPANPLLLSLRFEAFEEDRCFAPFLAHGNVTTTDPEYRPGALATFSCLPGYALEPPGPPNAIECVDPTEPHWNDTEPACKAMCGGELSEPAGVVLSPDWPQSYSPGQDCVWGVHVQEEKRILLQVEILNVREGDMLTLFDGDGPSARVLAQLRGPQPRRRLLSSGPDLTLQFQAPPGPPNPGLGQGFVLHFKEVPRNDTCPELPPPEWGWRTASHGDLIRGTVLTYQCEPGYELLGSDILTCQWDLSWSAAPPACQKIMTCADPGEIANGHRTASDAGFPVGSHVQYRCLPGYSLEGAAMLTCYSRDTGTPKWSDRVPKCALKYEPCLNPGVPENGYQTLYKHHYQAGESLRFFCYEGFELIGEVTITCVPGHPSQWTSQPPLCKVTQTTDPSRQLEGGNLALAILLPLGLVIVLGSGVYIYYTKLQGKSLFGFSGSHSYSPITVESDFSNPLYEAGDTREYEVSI

B1: humanized anti-SEZ6L2 antibody 16H8 (antibody, human IgG1, V domains shown)
VH: QIQLVQPGAEVKKPGASVKVSCKASGYTFTSYWMYWVRQAPGQGLEWMGAIYPRDSDTSYNQKFKGRVTMTRVTSTSTVYMELSSLRSEDTAVYYCTRGDYYYGSSYYAMDYWGQGTTVTVSS
VL: DIVMTQSPLSLPVTPGEPASISCSSSKSLLHSNGITYLYWYLQKPGQSPQLLIYRMSNLASGVPDRFSGSGSGTDFTLKISRVEAEDVGVYYCAQMLERPYTFGQGTKVEIKR
notes: Humanized from mu16H8; also called 16H8:A3F5
B1 was tested, and the Kd [1] was 2 nM, the binding result [2] was “no binding (tested: 1 ug/ml)” and the binding result [3] was “no binding (tested: 1 ug/ml)”.

B2: human anti-SEZ6L2 antibody 3A1 (antibody, V domains shown)
VH: QVQLVQSGAEVKKPGASVKVSCKASGFTFTGYYILWMRQAPGQGLEWMGWINPNNGGTHYAQKFQGRVTMTRDTSISTAYMELSRLRSDDTAVYYCARDSGHDWYFDLWGRGTLVTVSS
VL: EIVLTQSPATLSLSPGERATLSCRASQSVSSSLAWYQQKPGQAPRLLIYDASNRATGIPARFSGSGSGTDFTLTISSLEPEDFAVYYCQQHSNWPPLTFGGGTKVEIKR
notes: Fully human antibody from H2L2 mice; it was captured on Protein A and detected with anti-human IgG
In the case of B2, the Kd [1] is reported as 0.3 nM, the Kd [4] is reported as 0.3 nM and the binding result [5] is reported as “no binding (tested: 1 ug/ml)”. B2: no binding (tested: 1 ug/ml) [6].

B3: humanized anti-SEZ6L2 antibody 20C4 (antibody, human IgG1, V domains shown)
VH: EVQLVESGGGLVQPGGSLRLSCAASGFTFTDYYMSWVRQAPGKGLEWVALIRNKANGYTTEYSASVKGRFTISRDNSKNSLYLQMNSLRAEDTAVYYCARNGLYGLFAYWGQGTLVTVSS
VL: DIVMTQTPLSIPVTPGEPASISCRSSTSLLESSGKHRLYWYLQKPGQSPQLLIYYMSNLASGVPDRFSGSGSGTDFTLKISRVEAEDFGVYYCMQSLEYPLTFGAGTKVEIKR
notes: also called 20C4:red
With B3 the Kd [1] was 3 nM, the Kd [4] was 3 nM and the binding result [7] was “no binding (tested: 1 ug/ml)”. B3: no binding (tested: 1 ug/ml) [8].

B4: humanized anti-SEZ6L2 antibody 3E2 (antibody, human IgG1, V domains shown)
VH: EVQLVESGGGLVQPGGSLKLSCAASGFSFNTITMNWVRQASGKGLEWVGRIRSKSNNYATYYADAVKDRFTISRDDSKNTAYLQMNSLKTEDTAVYYCVRGIFSGYVYAMDYWGQGTLVTVSS
VL: DVVMTQSPLSLPVTVGQPASISCRSSQSIVHSNGNTYLEWFQQRPGQSPRVLIYKVSNRFSGVPDRFSGSGSGTDFTLKISRVEAEDVGVYYCFQGSHVPYTFGGGTKLEIKR
notes: also called 3E2:7D4
B4 was tested, and the Kd [1] was 2 nM, the Kd [4] was 2 nM and the binding result [9] was “no binding (tested: 1 ug/ml)”. B4: no binding (tested: 1 ug/ml) [10].

B5: human anti-SEZ6L2 antibody 1C6 (antibody, V domains shown)
VH: QVQLQESGPGLVKPSETLSLTCTVSGGSISSYYWSWIRQPPGKGLEWIGYIYNSGSTNYNPSLKSRVTISVDTSKNQFSLKLSSVTAADTAVYYCARRGDQGYWYFDLWGRGTLVTVSS
VL: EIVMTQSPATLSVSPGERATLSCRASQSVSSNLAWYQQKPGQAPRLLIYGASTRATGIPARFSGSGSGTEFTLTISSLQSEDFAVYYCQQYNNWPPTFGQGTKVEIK
notes: also called 106
B5: no binding (tested: 1 ug/ml) [11]; no binding (tested: 1 ug/ml) [12]; binds [13].

B6: human anti-SEZ6L2 antibody 3A3 (antibody, V domains shown)
VH: QVQLQESGPGLVKPSGTLSLTCAVSGGSISSSNWWSWVRQPPGKGLEWIGEIYHSGSTNYNPSLKSRVTISVDKSKNQFSLKLSSVTAADTAVYYCAAYSGSYFEYWGQGTLVTVSS
VL: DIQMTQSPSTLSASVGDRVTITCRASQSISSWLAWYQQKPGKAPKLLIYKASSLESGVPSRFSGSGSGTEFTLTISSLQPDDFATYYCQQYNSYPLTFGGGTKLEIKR
notes: Fully human antibody from H2L2 mice
B6 was tested, and the Kd [1] was 24 nM, the Kd [4] was 26 nM and the binding result [14] was “no binding (tested: 1 ug/ml)”. B6: no binding (tested: 1 ug/ml) [15].

B7: human anti-SEZ6L2 antibody 3A2 (antibody, V domains shown)
VH: QVQLQESGPGLVKPSGTLSLTCAVSGGSISSYHWWSWVRQPPGKGLEWIGEIYHSGSTNYNPSLKSRVTISVDKSKNQFSLKLSSVTAADTAVYYCARWGRIAVADYWGQGTLVTVSS
VL: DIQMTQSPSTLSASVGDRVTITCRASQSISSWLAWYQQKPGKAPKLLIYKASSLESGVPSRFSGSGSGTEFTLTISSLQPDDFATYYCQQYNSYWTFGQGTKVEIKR
notes: as for B6
With B7 the Kd [1] was 3 nM, the Kd [4] was 3 nM and the binding result [16] was “no binding (tested: 1 ug/ml)”. B7: no binding (tested: 1 ug/ml) [17].
